Experimental data from patent publication US20240228612A1 (SICHUAN KELUN BIOTECH BIOPHARMACEUTICAL, published 2024).
Residue numbers refer to the chain shown, from its start. Like-named read-outs stand apart in the source and are kept apart here.

What was measured:
human Nectin-4 protein [1] = target: T1, human Nectin-4 protein (human, UniProt Q96NY8 32-349); experiment: ELISA, coated human Nectin-4
T1 construct: Purified protein used for coating in ELISA and as analyte in Octet; also called human Nectin-4 antigen
T1 sequence (looked up): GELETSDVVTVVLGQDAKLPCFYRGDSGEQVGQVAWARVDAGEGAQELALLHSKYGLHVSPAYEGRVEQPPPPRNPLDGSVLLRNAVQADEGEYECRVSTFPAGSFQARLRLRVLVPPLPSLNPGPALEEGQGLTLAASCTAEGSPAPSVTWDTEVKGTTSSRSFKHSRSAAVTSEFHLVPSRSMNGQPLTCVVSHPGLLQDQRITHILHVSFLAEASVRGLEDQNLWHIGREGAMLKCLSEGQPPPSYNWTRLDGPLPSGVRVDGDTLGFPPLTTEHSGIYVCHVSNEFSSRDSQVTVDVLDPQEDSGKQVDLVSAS
Protocol: Human Nectin-4 (Sino Biological, Cat: 19771-H08H) was diluted to 1 μg/mL with carbonate (CBS) buffer, added to a 96-well plate at a volume of 100 μL/well, and placed at 4° C. for 16-20 h. The CBS buffer in the 96-well plate was discarded by pipetting, the plate was washed once with PBST (pH 7.4, PBS containing 0.05% Tween 20) buffer, added with 200 μL/well of skim milk powder (blocking solution) containing 2% PBST, incubated for 1 h at room temperature for blocking. The blocking solution was removed, and the plate was washed three times with PBST buffer. The anti-Nectin-4 mouse antibody to be tested was diluted with PBST/2% skim milk powder to an appropriate concentration, then added to the plate at a volume of 100 μL/well, and incubated at room temperature for 1.5 h. The reaction system was removed, and the plate was washed three times with PBST, and 50 μL/well of HRP-labeled goat anti-mouse IgG secondary antibody (purchased from the Jackson Laboratory) diluted with PBST/1% skim milk powder (dilution ratio 1:5000) was added, and incubated at room temperature for 1 h. After the plate was washed 3 times with PBST, 100 μL/well of TMB was added, and incubated at room temperature for 5-10 min for color development. The color development was stopped by adding 50 μL/well of 0.2 M sulfuric acid. Microplate reader was used to detect optical density (O.D.) at dual wavelengths 450/620 nm.

[2] = target: T2, human Nectin-4 on cell membrane surface (human, UniProt Q96NY8 32-510); experiment: flow cytometry on T47D cells
T2 construct: whole, on cells; also called A549-Nectin-4; T24-Nectin-4
T2 sequence (looked up): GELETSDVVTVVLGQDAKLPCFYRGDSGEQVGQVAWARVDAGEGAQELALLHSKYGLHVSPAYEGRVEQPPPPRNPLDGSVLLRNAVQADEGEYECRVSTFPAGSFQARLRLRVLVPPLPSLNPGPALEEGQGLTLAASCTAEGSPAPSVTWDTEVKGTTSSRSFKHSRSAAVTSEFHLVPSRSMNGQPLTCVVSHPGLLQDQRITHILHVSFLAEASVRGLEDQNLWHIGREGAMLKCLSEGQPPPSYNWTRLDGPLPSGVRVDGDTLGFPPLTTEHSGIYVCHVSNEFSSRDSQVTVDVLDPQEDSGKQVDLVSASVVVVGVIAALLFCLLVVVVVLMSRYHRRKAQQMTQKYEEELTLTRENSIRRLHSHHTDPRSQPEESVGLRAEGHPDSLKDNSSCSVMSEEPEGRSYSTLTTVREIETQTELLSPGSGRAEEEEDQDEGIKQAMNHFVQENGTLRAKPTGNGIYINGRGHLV
Protocol: The specific steps were as follows: T47D cells were digested, resuspended by centrifugation, and washed twice with PBS; the cells were resuspended in PBS (containing 1% BSA), and spread into a 96-well tip-bottom plate at 3×10⁵ cells/well, with a volume of 50 μl per well; 50 μL of the antibody to be tested was added to each well, starting at a final concentration of […], 4-fold gradient dilution, a total of 10 concentration points; Human IgG was used as a negative control; after being mixed well, the resulting mixture was reacted in the dark at 4° C. for 1 hour; washing was performed 3 times with PBS, FITC-labeled anti-human Fc secondary antibody (brand: BioLegend, product number: 409322) was added, incubated at 4° C. for 0.5 hours in the dark; washing was performed 3 times with PBS, and detection was carried out using a flow cytometer (flow cytometer brand: Beckman, model: Cytoflex).

[3] = target: T3, cynomolgus monkey Nectin-4 protein (cynomolgus monkey); experiment: ELISA, coated cynomolgus monkey Nectin-4, anti-human-HRP
T3 construct: also called cynomolgus monkey Nectin-4 antigen

[4] = target: T2, human Nectin-4 on cell membrane surface; experiment: flow cytometry on NCI-N87 cells
[5] = target: T3, cynomolgus monkey Nectin-4 protein; experiment: ELISA, coated cynomolgus monkey Nectin-4, anti-human-HRP; remark: listed apart in the source
human Nectin-4 protein [6] = target: T1, human Nectin-4 protein; experiment: ELISA, coated human Nectin-4, anti-human-HRP
[7] = target: T3, cynomolgus monkey Nectin-4 protein; experiment: BLI (Octet Fortebio), antibody on ProA sensor, Nectin-4 as analyte, 1:1 global fit
Protocol: (§1) The dynamic affinity of anti-human Nectin-4 humanized monoclonal antibodies was detected using Octet Fortebio®. The main steps comprised: firstly, the anti-human Nectin-4 humanized monoclonal antibody (concentration of 5 μg/mL) was immobilized on ProA sensor, then subjected to binding reaction with human or cynomolgus monkey Nectin-4 (gradiently diluted to 400 nM, 200 nM, 100 nM, 50 nM, 25 nM, 12.5 nM, 6.25 nM, 0 nM), and the anchored product in the solid phase obtained through fully reaction was subjected to dissociation reaction in PBST buffer. After the completion of the experiment, the results were analyzed by using Data Analysis 11.0 software at 1:1 mode to perform global fitting, thereby obtaining the affinity constant of antibody to antigen.

human Nectin-4 protein [8] = target: T1, human Nectin-4 protein; experiment: as above
Protocol: as §1

[9] = target: T3, cynomolgus monkey Nectin-4 protein; experiment: ELISA, coated antigen
Source text: (§2) The affinity of anti-human Nectin-4 humanized monoclonal antibodies to Nectin-4 protein of different species was detected by ELISA.

human Nectin-4 protein [10] = target: T1, human Nectin-4 protein; experiment: ELISA, coated antigen
Source text: as §2

human Nectin-4 protein [11] = target: T1, human Nectin-4 protein; experiment: ELISA, coated human Nectin-4, anti-human-HRP; remark: listed apart in the source
human Nectin-4 protein [12] = target: T1, human Nectin-4 protein; experiment: competitive ELISA, coated Nectin-4; competitor biotin-labeled Nectin-1-hFc
Protocol: Human Nectin-4 is linked to another Nectin-4 molecule or Nectin-1 molecule through the IgV domain. Because 31HZ, 56HZ and 74HZ all bind to the IgV domain of Nectin-4, the competitive activity of the three antibodies was detected by competitive ELISA. The specific steps were as follows: Nectin-4 protein was diluted to 2 μg/mL with CBS coating solution, 100 μL per well, and incubated at 37° C. for 2 hours; washing was performed once with 300 μL PBST, PBS (2% BSA) was then added, 100 μL per well, and incubation was performed at 37° C. for 2 hours; biotin-labeled Nectin-1-hFc was diluted with PBS (2% BSA) to 20 μg/mL; the antibody to be detected was diluted with PBS (2% BSA), wherein the dilution of 31HZ and 74HZ was started from 3.73 μg/mL, 3-fold dilution, and 9 concentration points, the dilution of 56HZ was started from 1.25 μg/mL, 2-fold dilution, and 10 concentration points; the above two diluted solutions were mixed well in equal volumes, and then added to the corresponding well at 100 μL/well, and incubation was performed at room temperature for 2 hours; washing was performed three times with 300 μL PBST; HRP-streptavidin was diluted with PBS (2% BSA) at a ratio of […], and added to the corresponding well at 100 μL/well, incubation was performed at room temperature for 1 hour; washing was performed five times with 300 μL of PBST; 100 μL of TMB was added to the corresponding well, color development was performed at room temperature for 10 minutes, and then terminated by adding 50 μL of 2N H₂SO₄, and a microplate reader was used for collecting readings at 450 nm.

human Nectin-4 protein [13] = target: T1, human Nectin-4 protein; experiment: ELISA, coated human Nectin-4, anti-human-HRP; remark: listed apart in the source

B1: anti-human Nectin-4 murine monoclonal antibody 56# (antibody, V domains shown)
VH: QVQLKESGPGLVKPSQSLSLTCTVTGYSITSDYDWHWIRHFPGNMLEWMGYISFSGRTYYNPSLKSRISITHDTSKNHFFLRLNSVTTEDTATYYCARGNYDGFDYWGQGTTLTVSS
VL: DIQLTQSPAILSVSPGERVSFSCRASQNIGTSIHWYQHRTNGSPRLLIKFASESISGIPSRFSGSGSGTDFTLSINSVESEDIADYYCQQSKSWPTYTFGGGTKLEIK
notes: Murine antibody purified by Protein A from hybridoma supernatant
In the case of B1, the EC50 (human Nectin-4 protein [1]) is reported as 36.3 pM.

B2: anti-human Nectin-4 murine monoclonal antibody 31# (antibody, V domains shown)
VH: EVQLQQPGADLVRPGASVKLSCKASGYTFTDYWMNWVKLRPGQGLEWIGMIHPSDSETRLNQKFKDKATLTVDKSSSTAYMQLSSPTSEDSAVYYCARWDFRIYYAMDYWGQGTSVTVSS
VL: DVVITQSPSSLAMSVGQKVTMSCKSSQSLLNTNSQKNYLAWYQQKPGQSPKLLVYFASTRESGVPDRFIGSGSGTDFTLTITSVQAEDLADYFCQQHYSTPLTFGAGTKLEIK
notes: as for B1
In the case of B2, the EC50 (human Nectin-4 protein [1]) is reported as 54.9 pM.

B3: anti-human Nectin-4 murine monoclonal antibody 74# (antibody, V domains shown)
VH: EVQLQQPGAELVRPGASVKLSCKASGYTFINYWMNWVKQRPGQGLEWIGMIHPSDSATRLNQKFKDKATLTVDKSSSTAYMQLSSPTSEDSAVYYCARWGNFYTVNAWYYFDYWGHGTTLTVSS
VL: B2 VL with V2I, S28T, T32S, S34T, V54F, D76N, T82S
notes: as for B1
B3 gave an EC50 (human Nectin-4 protein [1]) of 69.4 pM.

B4: Enfortumab (antibody, V domains shown)
VH: EVQLVESGGGLVQPGGSLRLSCAASGFTFSSYNMNWVRQAPGKGLEWVSYISSSSSTIYYADSVKGRFTISRDNAKNSLSLQMNSLRDEDTAVYYCARAYYYGMDVWGQGTTVTVSS
VL: DIQMTQSPSSVSASVGDRVTITCRASQGISGWLAWYQQKPGKAPKFLIYAASTLQSGVPSRFSGSGSGTDFTLTISSLQPEDFATYYCQQANSFPPTFGGGTKVEIKR
B4 was tested, and the EC50 [2] was 10.1 ng/mL, the “EC50 (read off the curve)” value [3] was ~7 ng/mL and the EC50 [4] was 22.1 ng/mL. For the same binder, the “EC50 (read off the curve)” value [5] was ~6 ng/mL, the “EC50 (read off the curve)” value (human Nectin-4 protein [6]) was ~7 ng/mL and the Kd [7] was 33600 pM. For the same binder, the Kd (human Nectin-4 protein [8]) was 28300 pM, the EC50 [9] was 6 ng/mL and the EC50 (human Nectin-4 protein [10]) was 7.1 ng/mL. The “EC50 (read off the curve)” value (human Nectin-4 protein [11]) was ~9 ng/mL, the IC50 (human Nectin-4 protein [12]) was 27.1 ng/mL and the “EC50 (read off the curve)” value (human Nectin-4 protein [13]) was ~5 ng/mL.
